Results from ChEMBL document CHEMBL3526061, “Glucuronidation of edaravone by human liver and kidney microsomes: biphasic kinetics and identification of UGT1A9 as the major UDP-glucuronosyltransferase isoform” (Drug Metab Dispos, 2012).

What was measured:
not read = substrate: CC(C)c1cccc(C(C)C)c1O; assay: not read
[1] = substrate: COc1c(C)c2c(c(O)c1C/C=C(\C)CCC(=O)O)C(=O)OC2; assay: Activity of human recombinant UGT1A9 expressed in insect cells assessed as enzyme mediated glucuronidation by LC-MS/MS method; format: ADME
[2] = substrate: CC1=NN(c2ccccc2)C(=O)C1; assay: Activity of human recombinant UGT2B17 expressed in insect cells assessed as enzyme mediated glucuronidation by LC-MS/MS method; format: ADME
[3] = substrate: CC1=NN(c2ccccc2)C(=O)C1; assay: Activity of human recombinant UGT2B7 expressed in insect cells assessed as enzyme mediated glucuronidation by LC-MS/MS method; format: ADME
[4] = substrate: CC1=NN(c2ccccc2)C(=O)C1; assay: Activity of human recombinant UGT1A7 expressed in insect cells assessed as enzyme mediated glucuronidation by LC-MS/MS method; format: ADME
[5] = substrate: CC1=NN(c2ccccc2)C(=O)C1; assay: Activity of human recombinant UGT1A6 expressed in insect cells assessed as enzyme mediated glucuronidation by LC-MS/MS method; format: ADME
[6] = substrate: CC1=NN(c2ccccc2)C(=O)C1; assay: Activity of human recombinant UGT1A1 expressed in insect cells assessed as enzyme mediated glucuronidation by LC-MS/MS method; format: ADME

B1: UDP-glucuronosyltransferase 1A9 (Homo sapiens) (protein)
chain: MACTGWTSPLPLCVCLLLTCGFAEAGKLLVVPMDGSHWFTMRSVVEKLILRGHEVVVVMPEVSWQLGRSLNCTVKTYSTSYTLEDLDREFKAFAHAQWKAQVRSIYSLLMGSYNDIFDLFFSNCRSLFKDKKLVEYLKESSFDAVFLDPFDNCGLIVAKYFSLPSVVFARGILCHYLEEGAQCPAPLSYVPRILLGFSDAMTFKERVRNHIMHLEEHLLCHRFFKNALEIASEILQTPVTEYDLYSHTSIWLLRTDFVLDYPKPVMPNMIFIGGINCHQGKPLPMEFEAYINASGEHGIVVFSLGSMVSEIPEKKAMAIADALGKIPQTVLWRYTGTRPSNLANNTILVKWLPQNDLLGHPMTRAFITHAGSHGVYESICNGVPMVMMPLFGDQMDNAKRMETKGAGVTLNVLEMTSEDLENALKAVINDKSYKENIMRLSSLHKDRPVEPLDLAVFWVEFVMRHKGAPHLRPAAHDLTWYQYHSLDVIGFLLAVVLTVAFITFKCCAYGYRKCLGKKGRVKKAHKSKTH
Km (not read): 41 µM
Km [1]: 160 µM

B2: UDP-glucuronosyltransferase 2B17 (Homo sapiens) (protein)
chain: MSLKWMSVFLLMQLSCYFSSGSCGKVLVWPTEYSHWINMKTILEELVQRGHEVIVLTSSASILVNASKSSAIKLEVYPTSLTKNDLEDFFMKMFDRWTYSISKNTFWSYFSQLQELCWEYSDYNIKLCEDAVLNKKLMRKLQESKFDVLLADAVNPCGELLAELLNIPFLYSLRFSVGYTVEKNGGGFLFPPSYVPVVMSELSDQMIFMERIKNMIYMLYFDFWFQAYDLKKWDQFYSEVLGRPTTLFETMGKAEMWLIRTYWDFEFPRPFLPNVDFVGGLHCKPAKPLPKEMEEFVQSSGENGIVVFSLGSMISNMSEESANMIASALAQIPQKVLWRFDGKKPNTLGSNTRLYKWLPQNDLLGHPKTKAFITHGGTNGIYEAIYHGIPMVGIPLFADQHDNIAHMKAKGAALSVDIRTMSSRDLLNALKSVINDPIYKENIMKLSRIHHDQPVKPLDRAVFWIEFVMRHKGAKHLRVAAHNLTWIQYHSLDVIAFLLACVATMIFMITKCCLFCFRKLAKTGKKKKRD
Km [2]: 129 µM
Vmax [2]: 4.29e-07 µmol/min/mg

B3: UDP-glucuronosyltransferase 2B7 (Homo sapiens) (protein)
chain: MSVKWTSVILLIQLSFCFSSGNCGKVLVWAAEYSHWMNIKTILDELIQRGHEVTVLASSASILFDPNNSSALKIEIYPTSLTKTELENFIMQQIKRWSDLPKDTFWLYFSQVQEIMSIFGDITRKFCKDVVSNKKFMKKVQESRFDVIFADAIFPCSELLAELFNIPFVYSLSFSPGYTFEKHSGGFIFPPSYVPVVMSELTDQMTFMERVKNMIYVLYFDFWFEIFDMKKWDQFYSEVLGRPTTLSETMGKADVWLIRNSWNFQFPYPLLPNVDFVGGLHCKPAKPLPKEMEDFVQSSGENGVVVFSLGSMVSNMTEERANVIASALAQIPQKVLWRFDGNKPDTLGLNTRLYKWIPQNDLLGHPKTRAFITHGGANGIYEAIYHGIPMVGIPLFADQPDNIAHMKARGAAVRVDFNTMSSTDLLNALKRVINDPSYKENVMKLSRIQHDQPVKPLDRAVFWIEFVMRHKGAKHLRVAAHDLTWFQYHSLDVIGFLLVCVATVIFIVTKCCLFCFWKFARKAKKGKND
Km [3]: 2380 µM
Vmax [3]: 1.77e-06 µmol/min/mg

B4: UDP-glucuronosyltransferase 1A7 (Homo sapiens) (protein)
chain: MARAGWTGLLPLYVCLLLTCGFAKAGKLLVVPMDGSHWFTMQSVVEKLILRGHEVVVVMPEVSWQLGRSLNCTVKTYSTSYTLEDQDREFMVFADARWTAPLRSAFSLLTSSSNGIFDLFFSNCRSLFNDRKLVEYLKESCFDAVFLDPFDACGLIVAKYFSLPSVVFARGIFCHYLEEGAQCPAPLSYVPRLLLGFSDAMTFKERVWNHIMHLEEHLFCPYFFKNVLEIASEILQTPVTAYDLYSHTSIWLLRTDFVLEYPKPVMPNMIFIGGINCHQGKPVPMEFEAYINASGEHGIVVFSLGSMVSEIPEKKAMAIADALGKIPQTVLWRYTGTRPSNLANNTILVKWLPQNDLLGHPMTRAFITHAGSHGVYESICNGVPMVMMPLFGDQMDNAKRMETKGAGVTLNVLEMTSEDLENALKAVINDKSYKENIMRLSSLHKDRPVEPLDLAVFWVEFVMRHKGAPHLRPAAHDLTWYQYHSLDVIGFLLAVVLTVAFITFKCCAYGYRKCLGKKGRVKKAHKSKTH
Km [4]: 432 µM
Vmax [4]: 7.4e-07 µmol/min/mg

B5: UDP-glucuronosyltransferase 1A6 (Homo sapiens) (protein)
chain: MACLLRSFQRISAGVFFLALWGMVVGDKLLVVPQDGSHWLSMKDIVEVLSDRGHEIVVVVPEVNLLLKESKYYTRKIYPVPYDQEELKNRYQSFGNNHFAERSFLTAPQTEYRNNMIVIGLYFINCQSLLQDRDTLNFFKESKFDALFTDPALPCGVILAEYLGLPSVYLFRGFPCSLEHTFSRSPDPVSYIPRCYTKFSDHMTFSQRVANFLVNLLEPYLFYCLFSKYEELASAVLKRDVDIITLYQKVSVWLLRYDFVLEYPRPVMPNMVFIGGINCKKRKDLSQEFEAYINASGEHGIVVFSLGSMVSEIPEKKAMAIADALGKIPQTVLWRYTGTRPSNLANNTILVKWLPQNDLLGHPMTRAFITHAGSHGVYESICNGVPMVMMPLFGDQMDNAKRMETKGAGVTLNVLEMTSEDLENALKAVINDKSYKENIMRLSSLHKDRPVEPLDLAVFWVEFVMRHKGAPHLRPAAHDLTWYQYHSLDVIGFLLAVVLTVAFITFKCCAYGYRKCLGKKGRVKKAHKSKTH
Km [5]: 778 µM
Vmax [5]: 1.24e-06 µmol/min/mg

B6: UDP-glucuronosyltransferase 1A1 (Homo sapiens) (protein)
chain: MAVESQGGRPLVLGLLLCVLGPVVSHAGKILLIPVDGSHWLSMLGAIQQLQQRGHEIVVLAPDASLYIRDGAFYTLKTYPVPFQREDVKESFVSLGHNVFENDSFLQRVIKTYKKIKKDSAMLLSGCSHLLHNKELMASLAESSFDVMLTDPFLPCSPIVAQYLSLPTVFFLHALPCSLEFEATQCPNPFSYVPRPLSSHSDHMTFLQRVKNMLIAFSQNFLCDVVYSPYATLASEFLQREVTVQDLLSSASVWLFRSDFVKDYPRPIMPNMVFVGGINCLHQNPLSQEFEAYINASGEHGIVVFSLGSMVSEIPEKKAMAIADALGKIPQTVLWRYTGTRPSNLANNTILVKWLPQNDLLGHPMTRAFITHAGSHGVYESICNGVPMVMMPLFGDQMDNAKRMETKGAGVTLNVLEMTSEDLENALKAVINDKSYKENIMRLSSLHKDRPVEPLDLAVFWVEFVMRHKGAPHLRPAAHDLTWYQYHSLDVIGFLLAVVLTVAFITFKCCAYGYRKCLGKKGRVKKAHKSKTH
Km [6]: 285 µM
Vmax [6]: 4.52e-08 µmol/min/mg
